Data: patent US20040259770A1, “Method for determining leukocyte activation” (Rush University Medical Center, priority 2003, published 2004)
Like-named read-outs stand apart in the source and are kept apart here.

How the values were obtained:
[1] = biological target: lactoferrin receptors on eosinophils; test: Binding of 125I-labeled lactoferrin by eosinophils, Scatchard analysis; design: species or system human; conditions: three experiments, 2 hours at room temperature
Protocol: Lactoferrin (100 micrograms) was radioiodinated using IODO-GEN iodination reagent (Pierce; Rockford, Ill.) according to the procedure supplied by the manufacturer. The lactoferrin was incubated with 400 micro Curies Na^125I (PerkinElmer Life Sciences; Boston, Mass.) for 3 min, and the ^125I-labeled lactoferrin was separated from free Na^125I by chromatography through a 5-ml D-Salt dextran desalting column (Pierce) using PBS as the elution buffer. Protein concentration of the ^125I-labeled lactoferrin was measured by the BCA assay (Pierce). Specific activity of the ^125I-labeled lactoferrin was 34,800 cpm/pmole. […] Binding of ^125I-labeled lactoferrin by eosinophils was determined using a modification of previously described protocols for eosinophils. Motegi et al. J. Immunol. 161:4340 (1998); Lopez et al., J. Biol. Chem. 266:24741 (1991). Eosinophils (2×10^6) were incubated with the indicated concentrations of ^125I-labeled lactoferrin alone and in the presence of excess unlabeled lactoferrin in RPMI 1640 containing 20 mM HEPES, 0.5% BSA, and 0.1% sodium azide (Lopez et al., J. Biol. Chem. 266:24741 (1991)) in siliconized glass tubes for 2 hr at room temperature on a circular oscillating platform. In some experiments as indicated, binding was measured in the presence of excess unlabeled transferrin. Total reaction volume was 0.15 ml. Reactions were stopped by centrifugation (1300 g for 4 min) of the reaction mixture through 200 microliters FCS in a 1.5 ml microcentrifuge tube. The supernatant was removed by careful aspiration, and after quick-freezing on dry ice the tip of the tube containing the cell pellet was excised and the radioactivity was measured by gamma counting (Beckman Coulter Gamma 5500B). Specific binding was determined as the difference between total binding and binding in the presence of the excess unlabeled lactoferrin. Binding constants were determined by Scatchard analysis (Scatchard, G., Ann. N.Y. Acad. Sci. 51:660 (1949)).

[2] = test system: eosinophils; test: Eosinophil superoxide production (cytochrome c reduction) in protein-coated tissue culture wells; assay type: cell-based, human; conditions: 1 to 100 micrograms per milliliter of the protein, 2 hours at 37° C
Protocol: Neutrophils were isolated from venous blood of healthy adult volunteers by density gradient centrifugation through lymphocyte separation medium (BioWhittaker; Walkersville, Md.) as described previously (Haskell M. D., et al., Blood 86:4627-4637 (1995)) with one modification. Isotonicity was restored following the brief hypotonic lysis steps by the addition of 2× concentrated Hank's Balanced Salt Solution (HBSS) (Gibco; Grand Island, N.Y.) (without Ca^2+ and Mg^2+) containing 5 mM HEPES, pH 7.4. The cells were suspended in HEPES (10 mM)-buffered HBSS (with Ca^2+ and Mg^2+), pH 7.4, containing 1 milligram per milliliter of human serum albumin (HSA) (Sigma Chemical Co.) (HEPES-HBSS-HSA buffer). Neutrophil purity was routinely greater than 95 percent, with eosinophils representing the remainder of the cells. Eosinophils were isolated from the neutrophil preparations by negative selection (Hansel T. T., et al., J. Immunol. Meth. 145:105-10 (1991)) using anti-CD16 immunomagnetic beads as described by the manufacturer (Miltenyi Biotec, Inc., Auburn, Calif.). The eosinophils were suspended in HEPES-HBSS-HSA buffer. Eosinophil purity was routinely greater than 95 percent as determined by counting Wright-stained cytospin preparations. In some assays, an aliquot of the neutrophil preparation was held on ice for later use.
Superoxide production was measured essentially as described elsewhere (Motegi, Y., and H. Kita, J. Immunol. 161:4340 (1998)). Briefly, wells in a 96-well (flat bottom) tissue culture plate (Corning, Inc.; Corning, N.Y.) were coated with human milk lactoferrin (Sigma Chemical Co.) or human secretory IgA (ICN Biomedical; Aurora, Ohio) by incubation with 50 microliters of the indicated concentrations of the proteins in phosphate buffered saline (PBS) overnight at 4° C. Non-specific protein binding sites were blocked by subsequent incubation with 100 microliters of 25 milligrams per milliliter of HSA in PBS for 2 hours at 37° C., and the tissue culture wells were washed twice with PBS before use. Aliquots (5×10^4 cells) of eosinophils or neutrophils were added to the wells and were incubated in HEPES-HBSS—HSA buffer containing 50 micromolar cytochrome c (Sigma Chemical Co.) for 120 minutes at 37° C. in a Ceres UV900HDi microplate reader (Bio-Tek Instruments, Inc., Winooski, Vt.). Total incubation volume was 0.2 milliliters. Absorbance at 550 nanometers was recorded at 15-minute intervals, and superoxide production was calculated as described previously (Motegi, Y., and H. Kita, J. Immunol. 161:4340 (1998)). Results are expressed as nanomoles superoxide per 10^5 cells after subtraction of spontaneous production, which was measured in tissue culture wells coated only with HSA. GM-CSF (R & D Systems; Minneapolis, Minn.), porcine heparin (Sigma Chemical Co.), or chondroitin sulfate C (Sigma Chemical Co.) was added to the incubation mixtures in some assays as indicated.

Kd ([1]; mean+/−SE, listed as 125I-lactoferrin, read-out: KD, first class of receptors) [nM] | Kd ([1]; mean+/−SE, read-out: KD, first class of receptors) [nM] | Kd ([1]; read-out: KD, second class of receptors) [nM] | Molecule | stimulation of eosinophil superoxide production (in words) [2]
~47 | 47 | ~260 | ^125I-labeled lactoferrin: lactoferrin radioiodinated with IODO-GEN reagent, 34,800 cpm/pmole (protein, UniProt P02788 20-710, looked up, 125I label, lactoferrin radioiodinated with IODO-GEN reagent, 34,800 cpm/pmole) Lactotransferrin: GRRRSVQWCAVSQPEATKCFQWQRNMRKVRGPPVSCIKRDSPIQCIQAIAENRADAVTLDGGFIYEAGLAPYKLRPVAAEVYGTERQPRTHYYAVAVVKKGGSFQLNELQGLKSCHTGLRRTAGWNVPIGTLRPFLNWTGPPEPIEAAVARFFSASCVPGADKGQFPNLCRLCAGTGENKCAFSSQEPYFSYSGAFKCLRDGAGDVAFIRESTVFEDLSDEAERDEYELLCPDNTRKPVDKFKDCHLARVPSHAVVARSVNGKEDAIWNLLRQAQEKFGKDKSPKFQLFGSPSGQKDLLFKDSAIGFSRVPPRIDSGLYLGSGYFTAIQNLRKSEEEVAARRARVVWCAVGEQELRKCNQWSGLSEGSVTCSSASTTEDCIALVLKGEADAMSLDGGYVYTAGKCGLVPVLAENYKSQQSSDPDPNCVDRPVEGYLAVAVVRRSDTSLTWNSVKGKKSCHTAVDRTAGWNIPMGLLFNQTGSCKFDEYFSQSCAPGSDPRSNLCALCIGDEQGENKCVPNSNERYYGYTGAFRCLAENAGDVAFVKDVTVLQNTDGNNNEAWAKDLKLADFALLCLDGKRKPVTEARSCHLAMAPNHAVVSRMDKVERLKQVLLHQQAKFGRNGSDCPDKFCLFQSETKNLLFNDNTECLARLHGKTTYEKYLGPQYVAGITNLKKCSTSPLLEACEFLRK | retained full ability to stimulate eosinophil superoxide production
 |  |  | immobilized deglycosylated lactoferrin: lactoferrin incubated with peptide N-glycosidase F for 72 hours at 37° C (protein, UniProt P02788 20-710, looked up, deglycosylated with PNGase F, lactoferrin incubated with peptide N-glycosidase F for 72 hours at 37° C) Lactotransferrin: GRRRSVQWCAVSQPEATKCFQWQRNMRKVRGPPVSCIKRDSPIQCIQAIAENRADAVTLDGGFIYEAGLAPYKLRPVAAEVYGTERQPRTHYYAVAVVKKGGSFQLNELQGLKSCHTGLRRTAGWNVPIGTLRPFLNWTGPPEPIEAAVARFFSASCVPGADKGQFPNLCRLCAGTGENKCAFSSQEPYFSYSGAFKCLRDGAGDVAFIRESTVFEDLSDEAERDEYELLCPDNTRKPVDKFKDCHLARVPSHAVVARSVNGKEDAIWNLLRQAQEKFGKDKSPKFQLFGSPSGQKDLLFKDSAIGFSRVPPRIDSGLYLGSGYFTAIQNLRKSEEEVAARRARVVWCAVGEQELRKCNQWSGLSEGSVTCSSASTTEDCIALVLKGEADAMSLDGGYVYTAGKCGLVPVLAENYKSQQSSDPDPNCVDRPVEGYLAVAVVRRSDTSLTWNSVKGKKSCHTAVDRTAGWNIPMGLLFNQTGSCKFDEYFSQSCAPGSDPRSNLCALCIGDEQGENKCVPNSNERYYGYTGAFRCLAENAGDVAFVKDVTVLQNTDGNNNEAWAKDLKLADFALLCLDGKRKPVTEARSCHLAMAPNHAVVSRMDKVERLKQVLLHQQAKFGRNGSDCPDKFCLFQSETKNLLFNDNTECLARLHGKTTYEKYLGPQYVAGITNLKKCSTSPLLEACEFLRK | stimulated superoxide production to the same extent and in the same concentration-dependent manner as immobilized mock-deglycosylated lactoferrin
 |  |  | mock-deglycosylated lactoferrin: lactoferrin given the same treatment as deglycosylated lactoferrin but in the absence of PNGase F (protein, UniProt P02788 20-710, looked up, mock-deglycosylated) Lactotransferrin: GRRRSVQWCAVSQPEATKCFQWQRNMRKVRGPPVSCIKRDSPIQCIQAIAENRADAVTLDGGFIYEAGLAPYKLRPVAAEVYGTERQPRTHYYAVAVVKKGGSFQLNELQGLKSCHTGLRRTAGWNVPIGTLRPFLNWTGPPEPIEAAVARFFSASCVPGADKGQFPNLCRLCAGTGENKCAFSSQEPYFSYSGAFKCLRDGAGDVAFIRESTVFEDLSDEAERDEYELLCPDNTRKPVDKFKDCHLARVPSHAVVARSVNGKEDAIWNLLRQAQEKFGKDKSPKFQLFGSPSGQKDLLFKDSAIGFSRVPPRIDSGLYLGSGYFTAIQNLRKSEEEVAARRARVVWCAVGEQELRKCNQWSGLSEGSVTCSSASTTEDCIALVLKGEADAMSLDGGYVYTAGKCGLVPVLAENYKSQQSSDPDPNCVDRPVEGYLAVAVVRRSDTSLTWNSVKGKKSCHTAVDRTAGWNIPMGLLFNQTGSCKFDEYFSQSCAPGSDPRSNLCALCIGDEQGENKCVPNSNERYYGYTGAFRCLAENAGDVAFVKDVTVLQNTDGNNNEAWAKDLKLADFALLCLDGKRKPVTEARSCHLAMAPNHAVVSRMDKVERLKQVLLHQQAKFGRNGSDCPDKFCLFQSETKNLLFNDNTECLARLHGKTTYEKYLGPQYVAGITNLKKCSTSPLLEACEFLRK | did not differ from that of control lactoferrin
 |  |  | soluble lactoferrin: human milk lactoferrin added in solution to HSA-coated wells (protein, UniProt P02788 20-710, looked up) Lactotransferrin: GRRRSVQWCAVSQPEATKCFQWQRNMRKVRGPPVSCIKRDSPIQCIQAIAENRADAVTLDGGFIYEAGLAPYKLRPVAAEVYGTERQPRTHYYAVAVVKKGGSFQLNELQGLKSCHTGLRRTAGWNVPIGTLRPFLNWTGPPEPIEAAVARFFSASCVPGADKGQFPNLCRLCAGTGENKCAFSSQEPYFSYSGAFKCLRDGAGDVAFIRESTVFEDLSDEAERDEYELLCPDNTRKPVDKFKDCHLARVPSHAVVARSVNGKEDAIWNLLRQAQEKFGKDKSPKFQLFGSPSGQKDLLFKDSAIGFSRVPPRIDSGLYLGSGYFTAIQNLRKSEEEVAARRARVVWCAVGEQELRKCNQWSGLSEGSVTCSSASTTEDCIALVLKGEADAMSLDGGYVYTAGKCGLVPVLAENYKSQQSSDPDPNCVDRPVEGYLAVAVVRRSDTSLTWNSVKGKKSCHTAVDRTAGWNIPMGLLFNQTGSCKFDEYFSQSCAPGSDPRSNLCALCIGDEQGENKCVPNSNERYYGYTGAFRCLAENAGDVAFVKDVTVLQNTDGNNNEAWAKDLKLADFALLCLDGKRKPVTEARSCHLAMAPNHAVVSRMDKVERLKQVLLHQQAKFGRNGSDCPDKFCLFQSETKNLLFNDNTECLARLHGKTTYEKYLGPQYVAGITNLKKCSTSPLLEACEFLRK | stimulated minimal superoxide production
